Source: IntAct's records for PubMed 26385923

B1: Mitochondrial antiviral-signaling protein (Homo sapiens), Q7Z434 (parent)
chain: MPFAEDKTYKYICRNFSNFCNVDVVEILPYLPCLTARDQDRLRATCTLSGNRDTLWHLFNTLQRRPGWVEYFIAALRGCELVDLADEVASVYQSYQPRTSDRPPDPLEPPSLPAERPGPPTPAAAHSIPYNSCREKEPSYPMPVQETQAPESPGENSEQALQTLSPRAIPRNPDGGPLESSSDLAALSPLTSSGHQEQDTELGSTHTAGATSSLTPSRGPVSPSVSFQPLARSTPRASRLPGPTGSVVSTGTSFSSSSPGLASAGAAEGKQGAESDQAEPIICSSGAEAPANSLPSKVPTTLMPVNTVALKVPANPASVSTVPSKLPTSSKPPGAVPSNALTNPAPSKLPINSTRAGMVPSKVPTSMVLTKVSASTVPTDGSSRNEETPAAPTPAGATGGSSAWLDSSSENRGLGSELSKPGVLASQVDSPFSGCFEDLAISASTSLGMGPCHGPEENEYKSEGTFGIHVAENPSIQLLEGNPGPPADPDGGPRPQADRKFQEREVPCHRPSPGALWLQVAVTGVLVVTLLVVLYRRRLH
partner: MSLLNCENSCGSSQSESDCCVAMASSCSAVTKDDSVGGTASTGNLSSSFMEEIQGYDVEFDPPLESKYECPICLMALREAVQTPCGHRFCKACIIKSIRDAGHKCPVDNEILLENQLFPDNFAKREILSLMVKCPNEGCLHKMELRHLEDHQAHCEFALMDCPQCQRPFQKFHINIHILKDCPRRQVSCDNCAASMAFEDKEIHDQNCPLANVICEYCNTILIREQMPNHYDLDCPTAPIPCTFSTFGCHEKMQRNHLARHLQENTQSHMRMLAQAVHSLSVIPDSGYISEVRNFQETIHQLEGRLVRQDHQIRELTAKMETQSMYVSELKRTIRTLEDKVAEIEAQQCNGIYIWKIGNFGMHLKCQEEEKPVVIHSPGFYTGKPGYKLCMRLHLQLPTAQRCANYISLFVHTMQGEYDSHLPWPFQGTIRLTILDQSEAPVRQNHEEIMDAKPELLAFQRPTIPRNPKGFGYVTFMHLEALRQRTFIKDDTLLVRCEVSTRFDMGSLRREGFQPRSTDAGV

Variants of: B1
Conditions: with traf6_human TRAF6, Q9Y4K3

**Q.** How did the “effect of a mutation on the interaction” value turn out when Y460A was run?
**A.** Its value is “disrupting interaction strength”.

**Q.** How did the “effect of a mutation on the interaction” value turn out when Y460E was run?
**A.** Its value is “decreasing interaction strength”.

**Q.** With P455D as the variant, how does the “effect of a mutation on the interaction” value read?
**A.** Its value is “disrupting interaction strength”.

**Q.** For E457A, which “effect of a mutation on the interaction” value is on record?
**A.** The value was “disrupting interaction strength”.
